Target: the molecule itself
Experiment: crystal structure

B1: Methylated MxiAC (318-686) (domain or fragment, Shigella flexneri, UniProt P0A1I5 318-686, looked up)
chain: VVEKEKSLSESDSSGYTGTFDIDNSHDSSLAMIENLDAISSETVPLILLFAENKINANDMEGLIERIRSQFFIDYGVRLPTILYRTSNELKVDDIVLLINEVRADSFNIYFDKVCITDENGDIDALGIPVVSTSYNERVISWVDVSYTENLTNIDAKIKSAQDEFYHQLSQALLNNINEIFGIQETKNMLDQFENRYPDLLKEVFRHVTIQRISEVLQRLLGENISVRNLKLIMESLALWAPREKDVITLVEHVRASLSRYICSKIAVSGEIKVVMLSGYIEDAIRKGIRQTSGGSFLNMDIEVSDEVMETLAHALRELRNAKKNFVLLVSVDIRRFVKRLIDNRFKSILVISYAEIDEAYTINVLKTI
modifications: reductive methylated by dimethylamine borane complex (DMAB) and formaldehyde
- stoichiometry N: 9
